Laboratory results: the supplement of paper PMC10567573

B1: INTS3 (parent)
chain: FHPIKETVVEEPVDITPYLDQLDE

Variants of: B1
Assay: protein stability index of a GFP-peptide fusion (GPS, HEK-293T) (PSI 1-6); higher = more stable
Settings: c terminus: a fixed tail appended
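Also: lentivirally expressed fusions sorted by FACS into six bins by GFP to DsRed ratio, PSI derived from sequencing read proportions per bin multiplied by bin number.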

Row | Variant | protein stability index
1 | FHLIKETVVEEPVDITPYLDQLDE [P3L] | 3.14
2 | FHNIKETVVEEPVDITPYLDQLDE [P3N] | 4.63
3 | FHPIKETVVNEPVDITPYLDQLDE [E10N] | 2.59
4 | FHPIKETVVTEPVDITPYLDQLDE [E10T] | 2.56
5 | FHPIKETVWEEPVDITPYLDQLDE [V9W] | 2
6 | FHPIKETVHEEPVDITPYLDQLDE [V9H] | 3.05
7 | FHPIKETVFEEPVDITPYLDQLDE [V9F] | 2.65
8 | FHPIKETVDEEPVDITPYLDQLDE [V9D] | 3.62
9 | FHPIKETVAEEPVDITPYLDQLDE [V9A] | 3.72
10 | FHPIKETVVEEPVDITPYLEQLDE [D20E] | 3.48
11 | FHPIKETVVEEPVDITPYLDQADE [L22A] | 3.9
12 | FHPIKETVVEEPVDITPYLDQCDE [L22C] | 3.82
13 | FHPIKETVVEEPVDITPYLDQEDE [L22E] | 3.68
14 | FHPIKETVVEEPVDITPYLDQFDE [L22F] | 3.03
15 | FFPIKETVVEEPVDITPYLDQLDE [H2F] | 4.86
16 | FDPIKETVVEEPVDITPYLDQLDE [H2D] | 5.42
17 | FEPIKETVVEEPVDITPYLDQLDE [H2E] | 5.26
18 | FGPIKETVVEEPVDITPYLDQLDE [H2G] | 5.35
19 | FQPIKETVVEEPVDITPYLDQLDE [H2Q] | 4.7
20 | FSPIKETVVEEPVDITPYLDQLDE [H2S] | 5.47
21 | FLPIKETVVEEPVDITPYLDQLDE [H2L] | 4.87
22 | FHPIKETVVEEEVDITPYLDQLDE [P12E] | 3.52
23 | FHPIKETVVEEVVDITPYLDQLDE [P12V] | 3.06
24 | FHPIKETVVEEWVDITPYLDQLDE [P12W] | 2.79

Row | Variant | protein stability index
25 | FHPIKETVVEEPVDDTPYLDQLDE [I15D] | 4.18
26 | FHPIKETVVEEPVDHTPYLDQLDE [I15H] | 3.03
27 | FHPIKETVVEEPVDIFPYLDQLDE [T16F] | 3.2
28 | FHPIKETVVEEPVDIHPYLDQLDE [T16H] | 2.79
29 | FHPIKETVVEEPVDILPYLDQLDE [T16L] | 3.05
30 | FHPIKETVVEEPVDICPYLDQLDE [T16C] | 3.09
31 | FHPIKETVVEEPVDIIPYLDQLDE [T16I] | 3.41
32 | FHPIKELVVEEPVDITPYLDQLDE [T7L] | 2.7
33 | FHPIKEMVVEEPVDITPYLDQLDE [T7M] | 3.55
34 | FHPIKKTVVEEPVDITPYLDQLDE [E6K] | 2.34
35 | FHPIKNTVVEEPVDITPYLDQLDE [E6N] | 2.67
36 | FHPIKRTVVEEPVDITPYLDQLDE [E6R] | 1.98
37 | FHPIKYTVVEEPVDITPYLDQLDE [E6Y] | 1.75
38 | FHPIKETVVEEPVDITPYLDQLDS [E24S] | 2.9
39 | FHPIKETVVEEPVDITPYLDQLDG [E24G] | 2.73
40 | FHPIKETVVEEPVDITPYLDQLDP [E24P] | 2.63
41 | FHPIKETVVERPVDITPYLDQLDE [E11R] | 2.49
42 | FHPIKETVVEYPVDITPYLDQLDE [E11Y] | 2.51
43 | FHPIKETVVEHPVDITPYLDQLDE [E11H] | 2.87
44 | FHPIKETVVELPVDITPYLDQLDE [E11L] | 2.76
45 | FHPIKETVVEVPVDITPYLDQLDE [E11V] | 2.79
46 | FHPIKETVVEPPVDITPYLDQLDE [E11P] | 2.95
47 | FHPIKETVVEGPVDITPYLDQLDE [E11G] | 3.19
48 | FHPIKETVVESPVDITPYLDQLDE [E11S] | 2.81

Row | Variant | protein stability index
49 | FHPIKETVVEEPVDITDYLDQLDE [P17D] | 3.58
50 | FHPIKETVVEEPVDITFYLDQLDE [P17F] | 3.08
51 | FHPIKETVVEEPVDITLYLDQLDE [P17L] | 2.92
52 | FHPIKETVVEEPPDITPYLDQLDE [V13P] | 2.43
53 | FHPIKETVVEEPNDITPYLDQLDE [V13N] | 3.42
54 | FHPIKETVVEEPGDITPYLDQLDE [V13G] | 3.27
55 | FHPIKETVVEEPTDITPYLDQLDE [V13T] | 3.8
56 | FHPIKETVVEEPHDITPYLDQLDE [V13H] | 3.32
57 | FHPIKETVVEEPVDITPYLDPLDE [Q21P] | 3.15
58 | FHPIKETVVEEPVDITPYLDCLDE [Q21C] | 2.55
59 | FHPIKETVVEEPVDITPYTDQLDE [L19T] | 3.31
60 | FHPIKETVVEEPVDITPYCDQLDE [L19C] | 3.21
61 | FHPIYETVVEEPVDITPYLDQLDE [K5Y] | 2.83
62 | FHPIWETVVEEPVDITPYLDQLDE [K5W] | 2.15
63 | FHPITETVVEEPVDITPYLDQLDE [K5T] | 4.29
64 | FHPIPETVVEEPVDITPYLDQLDE [K5P] | 4.29
65 | FHPILETVVEEPVDITPYLDQLDE [K5L] | 3.87
66 | FHPIFETVVEEPVDITPYLDQLDE [K5F] | 3.73
67 | FHPIEETVVEEPVDITPYLDQLDE [K5E] | 5.06
68 | FHPIQETVVEEPVDITPYLDQLDE [K5Q] | 3.35
69 | FHPIDETVVEEPVDITPYLDQLDE [K5D] | 4.86
70 | FHPIKETKVEEPVDITPYLDQLDE [V8K] | 3.49
71 | FHPIKETQVEEPVDITPYLDQLDE [V8Q] | 4.21
72 | FHPIKETLVEEPVDITPYLDQLDE [V8L] | 3.56

Row | Variant | protein stability index
73 | FHPIKETEVEEPVDITPYLDQLDE [V8E] | 4.18
74 | FHPIKETCVEEPVDITPYLDQLDE [V8C] | 3.76
75 | EHPIKETVVEEPVDITPYLDQLDE [F1E] | 5.2
76 | PHPIKETVVEEPVDITPYLDQLDE [F1P] | 5.74
77 | KHPIKETVVEEPVDITPYLDQLDE [F1K] | 5.66
78 | FHPIKETVVEEPVDITPNLDQLDE [Y18N] | 3.72
79 | FHPIKETVVEEPVDITPHLDQLDE [Y18H] | 3.5
80 | FHPIKETVVEEPVDITPTLDQLDE [Y18T] | 3.71
81 | FHPIKETVVEEPVDITPDLDQLDE [Y18D] | 3.43
82 | FHPIKETVVEEPVDITPGLDQLDE [Y18G] | 3.69
83 | FHPGKETVVEEPVDITPYLDQLDE [I4G] | 4.25
84 | FHPQKETVVEEPVDITPYLDQLDE [I4Q] | 3.83
85 | FHPHKETVVEEPVDITPYLDQLDE [I4H] | 4.1
86 | FHPTKETVVEEPVDITPYLDQLDE [I4T] | 3.9
87 | FHPIKETVVEEPVDITPYLDQLSE [D23S] | 2.68
88 | FHPIKETVVEEPVDITPYLDQLQE [D23Q] | 3.02
89 | FHPIKETVVEEPVDITPYLDQLNE [D23N] | 2.8
90 | FHPIKETVVEEPVDITPYLDQLME [D23M] | 2.22
91 | FHPIKETVVEEPVDITPYLDQLWE [D23W] | 1.8
92 | FHPIKETVVEEPVGITPYLDQLDE [D14G] | 2.42
93 | FHPIKETVVEEPVNITPYLDQLDE [D14N] | 3.04
94 | FHPIKETVVEEPVMITPYLDQLDE [D14M] | 2.14
